In patent publication US10654927B2, “Signalling system” (UCL BUSINESS PLC, priority 2014, dated 2020):

What was measured:
[1] = test system: SupT1 cells engineered to express CD33; assay: Activation of BW5 T-cells expressing TetCAR challenged with SupT1 cells engineered to express CD33; type: cell-based; conditions: increasing concentrations of tetracycline
From the text: FIG. 7—Function of the initial TetR construct in comparison with control. (a) TetCAR was expressed in BW5 T-cells. These T-cells were challenged with wild-type SupT1 cells or SupT1 cells engineered to express CD33 in the absence of tetracycline or in the presence of increasing concentrations of tetracycline. […] (b) Control TetCAR which lacks the TiP domain was transduced into BW5. Once again, these T-cells were challenged with wild-type SupT1 cells or SupT1 cells engineered to express CD33 in the absence or in the presence of increasing concentration of Tetracycline.
Signalling through the signalling component may be determined by a variety of methods known in the art. […] Functional readouts, such as clonal expansion of T cells, upregulation of activation markers on the cell surface, differentiation into effector cells and induction of cytotoxicity or cytokine secretion may also be utilised. As an illustration, in the present examples the inventors determined levels of interleukin-2 (IL-2) produced by T-cells expressing a receptor component and signalling component of the CAR system according to the present invention upon binding of antigen to the receptor component in the presence of varying concentrations of an agent. […]

streptavidin = streptavidin (Streptomyces avidinii, UniProt P22629); conditions: biotin mimicking peptide binding streptavidin; read-out: affinity; cited from earlier work
Sequence of streptavidin (P22629 37-163): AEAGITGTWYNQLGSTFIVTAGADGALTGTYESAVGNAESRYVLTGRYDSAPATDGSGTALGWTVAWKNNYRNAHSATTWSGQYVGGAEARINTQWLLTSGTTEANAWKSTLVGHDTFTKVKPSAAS

Compound	concentration of tetracycline at which activation is fully inhibited [1] [nM]	Kd (streptavidin) [nM]
CN(C)[C@@H]1C(O)=C(C(N)=O)C(=O)[C@@]2(O)C(O)=C3C(=O)c4c(O)cccc4[C@@](C)(O)[C@H]3C[C@@H]12 [tetracycline]	100	
Biotin mimicking peptide CHPQGPPC (SEQ ID NO: 9) (Biotin mimicking peptide, ccstreptag)		230
Biotin mimicking peptide DVEAWLDERVPLVET (SEQ ID NO: 4) (Biotin mimicking peptide, long nanotag)		3.6
Biotin mimicking peptide DVEAWLGAR (SEQ ID NO: 5) (Biotin mimicking peptide, short nanotag)		17
Biotin mimicking peptide WSHPQFEK (SEQ ID NO: 7) [streptag II]		72000
